{
  "source": "patent US20230265170A1",
  "assay_in_all_cases": "cell-based or functional assay",
  "key": {"[1]": {"molecular_target": "synthetic SARS-CoV-2 spike 'BA.4 + all' (SARS-CoV-2 (synthetic variant))"}, "[2]": {"molecular_target": "SARS-CoV-2 spike (S) protein of the variant printed 'BA.1' in column 9 of Table 32 (SARS-CoV-2)"}, "[3]": {"molecular_target": "SARS-CoV-2 Omicron BA.3 spike (S) protein (SARS-CoV-2)"}, "[4]": {"molecular_target": "SARS-CoV-2 Omicron BA.2 spike (S) protein (SARS-CoV-2)"}, "[5]": {"molecular_target": "SARS-CoV-2 Omicron BA.1 spike (S) protein (SARS-CoV-2)"}},
  "data": [
    {"substance": "ADG20 (antibody)", "values": [
      {"measurement": "IC50 (pseudovirus neutralization)", "setting": "[1]", "value": "> 10", "unit": "µg/mL"},
      {"measurement": "IC50 (pseudovirus neutralization)", "setting": "[2]", "value": "> 10", "unit": "µg/mL"}
    ]},
    {"substance": "AZD1061 (antibody)", "values": [
      {"measurement": "IC50 (pseudovirus neutralization)", "setting": "[1]", "value": "> 10", "unit": "µg/mL"},
      {"measurement": "IC50 (pseudovirus neutralization)", "setting": "[2]", "value": "> 10", "unit": "µg/mL"}
    ]},
    {"substance": "AZD7442", "values": [
      {"measurement": "IC50, pseudoviral neutralization", "setting": "[3]", "value": 0.065, "unit": "µg/mL"},
      {"measurement": "IC50 (pseudovirus neutralization)", "setting": "[1]", "value": "> 10", "unit": "µg/mL"},
      {"measurement": "IC50 (pseudovirus neutralization)", "setting": "[2]", "value": 2.73, "unit": "µg/mL"},
      {"measurement": "IC50, pseudoviral neutralization", "setting": "[4]", "value": 0.008, "unit": "µg/mL"},
      {"measurement": "IC50, pseudoviral neutralization", "setting": "[5]", "value": 0.232, "unit": "µg/mL"}
    ]},
    {"substance": "AZD8895 (antibody)", "values": [
      {"measurement": "IC50 (pseudovirus neutralization)", "setting": "[1]", "value": "> 10", "unit": "µg/mL"},
      {"measurement": "IC50 (pseudovirus neutralization)", "setting": "[2]", "value": 5.11, "unit": "µg/mL"}
    ]},
    {"substance": "Ly-CoV16 (antibody)", "values": [
      {"measurement": "IC50 (pseudovirus neutralization)", "setting": "[1]", "value": "> 10", "unit": "µg/mL"},
      {"measurement": "IC50 (pseudovirus neutralization)", "setting": "[2]", "value": "> 10", "unit": "µg/mL"}
    ]},
    {"substance": "Ly-CoV555 (antibody)", "values": [
      {"measurement": "IC50 (pseudovirus neutralization)", "setting": "[1]", "value": "> 10", "unit": "µg/mL"},
      {"measurement": "IC50 (pseudovirus neutralization)", "setting": "[2]", "value": "> 10", "unit": "µg/mL"}
    ]},
    {"substance": "Ly-CoV1404 (antibody)", "values": [
      {"measurement": "IC50 (pseudovirus neutralization)", "setting": "[1]", "value": "> 10", "unit": "µg/mL"},
      {"measurement": "IC50 (pseudovirus neutralization)", "setting": "[2]", "value": "> 10", "unit": "µg/mL"}
    ]},
    {"substance": "Omi-03 (antibody)", "values": [
      {"measurement": "IC50 (pseudovirus neutralization)", "setting": "[1]", "value": 0.432, "unit": "µg/mL"},
      {"measurement": "IC50 (pseudovirus neutralization)", "setting": "[2]", "value": 0.014, "unit": "µg/mL"}
    ]},
    {"substance": "Omi-12 (antibody)", "values": [
      {"measurement": "IC50 (pseudovirus neutralization)", "setting": "[1]", "value": "> 10", "unit": "µg/mL"},
      {"measurement": "IC50 (pseudovirus neutralization)", "setting": "[2]", "value": 0.004, "unit": "µg/mL"}
    ]},
    {"substance": "Omi-18 (antibody)", "values": [
      {"measurement": "IC50 (pseudovirus neutralization)", "setting": "[1]", "value": 3.61, "unit": "µg/mL"},
      {"measurement": "IC50 (pseudovirus neutralization)", "setting": "[2]", "value": 0.005, "unit": "µg/mL"}
    ]},
    {"substance": "Omi-29 (antibody)", "values": [
      {"measurement": "IC50 (pseudovirus neutralization)", "setting": "[1]", "value": "> 10", "unit": "µg/mL"},
      {"measurement": "IC50 (pseudovirus neutralization)", "setting": "[2]", "value": 0.025, "unit": "µg/mL"}
    ]},
    {"substance": "Omi-32 (antibody)", "values": [
      {"measurement": "IC50 (pseudovirus neutralization)", "setting": "[1]", "value": "> 10", "unit": "µg/mL"},
      {"measurement": "IC50 (pseudovirus neutralization)", "setting": "[2]", "value": "> 10", "unit": "µg/mL"}
    ]},
    {"substance": "Omi-42 (antibody)", "values": [
      {"measurement": "IC50 (pseudovirus neutralization)", "setting": "[1]", "value": 0.008, "unit": "µg/mL"},
      {"measurement": "IC50 (pseudovirus neutralization)", "setting": "[2]", "value": 0.01, "unit": "µg/mL"}
    ]},
    {"substance": "REGN10933 (antibody)", "values": [
      {"measurement": "IC50 (pseudovirus neutralization)", "setting": "[1]", "value": "> 10", "unit": "µg/mL"},
      {"measurement": "IC50 (pseudovirus neutralization)", "setting": "[2]", "value": "> 10", "unit": "µg/mL"}
    ]},
    {"substance": "REGN10987 (antibody)", "values": [
      {"measurement": "IC50 (pseudovirus neutralization)", "setting": "[1]", "value": "> 10", "unit": "µg/mL"},
      {"measurement": "IC50 (pseudovirus neutralization)", "setting": "[2]", "value": "> 10", "unit": "µg/mL"}
    ]},
    {"substance": "S309 (antibody)", "values": [
      {"measurement": "IC50 (pseudovirus neutralization)", "setting": "[1]", "value": 0.582, "unit": "µg/mL"},
      {"measurement": "IC50 (pseudovirus neutralization)", "setting": "[2]", "value": 0.436, "unit": "µg/mL"}
    ]}
  ]
}
